Paper doi:10.1101/2023.09.24.559210

What was measured:
[1] = target: JAM-A C-terminal 10mer peptide, N-terminally FITC-conjugated; test: fluorescence polarisation
[2] = target: nectin-1 C-terminal 10mer peptide, N-terminally FITC-conjugated; test: fluorescence polarisation
[3] = target: nectin-1 C-terminal 10mer peptide, N-terminally biotinylated; test: BLI
[4] = target: JAM-A C-terminal 10mer peptide, N-terminally biotinylated; test: BLI

Kd [1]: 5 µM
Kd [2]: 3 µM
Kd [3]: 3 µM
bond lifetime [3]: 1.2 s
Kd [4]: 5 µM
bond lifetime [4]: 0.65 s
B1: human afadin PDZ domain (domain or fragment)
chain: IITVTLKKQNGMGLSIVAAKGAGQDKLGIYVKSVVKGGAADVDGRLAAGDQLLSVDGRSLVGLSQERAAELMTRTSSVVTLEVAKQG
